In publication PMC5428420, “The trimer interface in the quaternary structure of the bifunctional prokaryotic FAD synthetase from Corynebacterium ammoniagenes” (Scientific Reports, 2017):

Molecular target: the molecule itself
Experiment: SEC; oligomeric fractions, 15-20 µM protein, incubated 10 min at room temperature in buffer only (20 mM PIPES, 0.8 mM MgCl2, pH 7.0), then passed again through Superdex 200 10/300 GL

B1: FAD synthetase from Corynebacterium ammoniagenes, wild type (enzyme)
chain: MDIWYGTAAVPKDLDNSAVTIGVFDGVHRGHQKLINATVEKAREVGAKAIMVTFDPHPVSVFLPRRAPLGITTLAERFALAESFGIDGVLVIDFTRELSGTSPEKYVEFLLEDTLHASHVVVGANFTFGENAAGTADSLRQICQSRLTVDVIDLLDDEGVRISSTTVREFLSEGDVARANWALGRHFYVTGPVVRGAGRGGKELGFPTANQYFHDTVALPADGVYAGWLTILPTEAPVSGNMEPEVAYAAAISVGTNPTFGDEQRSVESFVLDRDADLYGHDVKVEFVDHVRAMEKFDSVEQLLEVMAKDVQKTRTLLAQDVQAHKMAPETYFLQAES
notes: Bifunctional FAD synthetase (N-terminal FMNAT module, C-terminal RFK module) from Corynebacterium ammoniagenes, CaFADS; Plasmid pET28a-CaFADS; The size of the oligomers was not resolved by gel filtration; also called CaFADS; WT CaFADS; source: E. coli BL21(DE3), purified (20% ammonium sulfate fractionation, phenyl-sepharose, DEAE-cellulose)
- monomer/oligomer ratio: ~0.8
